Article PMC5702613 (Nature Communications, 2017)

B1: Danio rerio TRAF6 RZ3 (residues 50-213) (domain or fragment, UniProt Q6IWL4 50-213, looked up)
chain: MPPDQQGYDVEFDPPLESKYECPICLMGLRSAVQTPCGHRFCDSCIRKSIRDTGQKCPVDNEVLLEEQLFPDNFAKREILSLTVKCSNFGCSEKMELRQLEKHLSQCRFATAPCPQCQESVPISHLDEHKSQHCLQRIMTCPDCAGSFVYAVKQNHEQFCPFAN
notes: TRAF6, Danio rerio, residues 50-213 (RING and ZF1-3), 19.7 kDa, in pET24b; also called DrRZ3; D. rerio RZ3 TRAF6; source: E. coli BL21 (DE3), purified (HisTrap, size exclusion)
B2: Danio rerio TRAF6 RZ1 (RING and ZF1, residues 50-159) (domain or fragment, UniProt Q6IWL4 50-159, looked up)
chain: MPPDQQGYDVEFDPPLESKYECPICLMGLRSAVQTPCGHRFCDSCIRKSIRDTGQKCPVDNEVLLEEQLFPDNFAKREILSLTVKCSNFGCSEKMELRQLEKHLSQCRFA
notes: TRAF6, Danio rerio, residues 50-159 (RING and ZF1), 13.7 kDa, in pET24b; also called DrRZ1; source: E. coli BL21 (DE3), purified (HisTrap, size exclusion)
B3: Homo sapiens TRAF6 RZ3 (RING domain and first three zinc fingers, residues 50-211) (domain or fragment, UniProt Q9Y4K3 50-211, looked up)
chain: MEEIQGYDVEFDPPLESKYECPICLMALREAVQTPCGHRFCKACIIKSIRDAGHKCPVDNEILLENQLFPDNFAKREILSLMVKCPNEGCLHKMELRHLEDHQAHCEFALMDCPQCQRPFQKFHINIHILKDCPRRQVSCDNCAASMAFEDKEIHDQNCPLA
notes: TNF receptor-associated factor 6 (TRAF6), human, residues 50-211 (RING and ZF1-3), 20.0 kDa, in pET21d; also called HsRZ3; wild-type HsRZ3; source: E. coli BL21 (DE3), purified (HisTrap, size exclusion)
B4: Ubc13 (C87K, K92T, K94Q), the E2 moiety of the Ubc13~Ub conjugate (enzyme)
chain: MAGLPRRIIKETQRLLAEPVPGIKAEPDESNARYFHVVIAGPQDSPFEGGTFKLELFLPEEYPMAAPKVRFMTKIYHPNVDKLGRIKLDILTDQWSPALQIRTVLLSIQALLSAPNPDDPLANDVAEQWKTNEAQAIETARAWTRLYAMNNI
modifications: isopeptide-linked to ubiquitin (C87K allows the stable isopeptide link)
notes: Ubc13 (also called Ube2N), E2 enzyme, with C87K, K92T and K94Q; Stands in the structures only as the Ubc13 moiety of the conjugate m4; also called Ube2N; not shown: GST, N-terminal, cleaved

What was measured:
[1] = biological target: T1, isopeptide-linked Ubc13-ubiquitin conjugate (Ubc13 C87K, K92T, K94Q linked to wild-type ubiquitin) (UniProt P61088 1-152; P0CG48 1-76, C87K | K92T | K94Q, isopeptide-linked to ubiquitin (C87K allows the stable isopeptide link) | isopeptide-linked to Ubc13); assay: SEC; DrRZ3 and Ubc13~Ub at 250 µM, alone or mixed, Superdex 200 10/300, 20 mM Tris-HCl pH 7.5, 150 mM NaCl; fractions on 16% SDS-PAGE; conditions: both partners purified
T1 construct: Ubc13 (also called Ube2N), E2 enzyme, with C87K, K92T and K94Q; ubiquitin, wild-type, expressed untagged; Two chains joined covalently by an isopeptide bond; also called Ubc13~Ub conjugate; source: proteins from E. coli BL21 (DE3); conjugated in vitro with E1 and ATP, purified (Superdex 75); not shown: GST, N-terminal, cleaved

[2] = biological target: T2, ubiquitin (wild-type), the ubiquitin moiety of the Ubc13~Ub conjugate (UniProt P0CG48 1-76, isopeptide-linked to Ubc13); assay: crystal structure; DrRZ3-Ubc13~Ub complex, 3.9 Å, P4(2)2(1)2; 100-200 mM Na/K tartrate, 11-15% PEG 3350, 100 mM Bis-Tris propane pH 7.5; conditions: both partners purified
T2 construct: ubiquitin, wild-type, expressed untagged; Stands in the structures only as the ubiquitin moiety of the conjugate m4; In the activity assays labelled or mutated ubiquitins (Cy3-Met-Cys-ubiquitin K63R, D77 ubiquitin) were used; source: E. coli BL21 (DE3), untagged, purified (HiTrap SP, Superdex 75)

[3] = biological target: the molecule itself; assay: as above
[4] = biological target: T1, isopeptide-linked Ubc13-ubiquitin …; assay: crystal structure; DrRZ1-Ubc13~Ub complex, 3.4 Å, C222(1); sodium citrate, 100 mM Bis-Tris propane, 17-23% PEG 3350; conditions: both partners purified
[5] = biological target: B4; assay: as above; conditions: both partners purified
[6] = biological target: T2, ubiquitin (wild-type), the ubiquitin …; assay: as above; conditions: both partners purified
[7] = biological target: the molecule itself; assay: as above
[8] = biological target: T1, isopeptide-linked Ubc13-ubiquitin …; assay: pull-down; GST-fused Uev1A on resin mixed with TRAF6, Ubc13 and Ubc13~Ub conjugates; PBS, 0.2% TWEEN 20, 1 mM DTT, 4 °C, 1 h; Coomassie-stained SDS-PAGE; conditions: both partners purified
[9] = biological target: B1; assay: crystal structure; DrRZ3-Ubc13~Ub complex, 3.9 Å, P4(2)2(1)2; 100-200 mM Na/K tartrate, 11-15% PEG 3350, 100 mM Bis-Tris propane pH 7.5; conditions: both partners purified

Binder: B1
binding result [1]: binds
binding result [2]: binds
stoichiometry N [3]: 2

Binder: B2
binding result [4]: binds
binding result [5]: binds
binding result [6]: binds
stoichiometry N [7]: 2

Binder: B3
binding result [8]: binds

Binder: B4
binding result [6]: binds
binding result [9]: binds
